Results published in US20240309090A1, “MODULATION OF ANDROGEN SIGNALING TO INNATE IMMUNE KILLING OF PROSTATE CANCER” (Brown University, priority 2023, published 2024).

B1: monalizumab (antibody, chains of the INN, looked up, V domains shown)
VH: QVQLVQSGAEVKKPGASVKVSCKASGYTFTSYWMNWVRQAPGQGLEWMGRIDPYDSETHYAQKLQGRVTMTTDTSTSTAYMELRSLRSDDTAVYYCARGGYDFDVGTLYWFFDVWGQGTTVTVSS
VL: DIQMTQSPSSLSASVGDRVTITCRASENIYSYLAWYQQKPGKAPKLLIYNAKTLAEGVPSRFSGSGSGTDFTLTISSLQPEDFATYYCQHHYGTPRTFGGGTKVEIK

Tests used:
PC3 cell line = test: Flow cytometry of HLA-E surface expression on AR-negative PC3; format: cell-based; conditions: for surface expression of HLA-E: PC3, DHT 30 nM, vorinostat 0.3 μM, panobinostat 3 nM, 48 h
From the text: (§1) To evaluate the modulation of the androgen receptor and tumor HLA-E expression, we astably transduced AR negative cell lines PC3 and DU145 with an Androgen Response Element (ARE) GFP reporter (FIG. 16H). […] Using AR+ constructed cell lines, PC3 and DU145, we sought to determine the dependence of HLA-E expression and possible modulation by AR. […] Although potential therapies targeting immune enhancement are being explored, the expression of exhaustion markers such as PD-1, NKG2A, and potential engaging ligands that diminish their cytotoxic function limits their application. Exploring these factors with new combination approaches, such as ARi and anti-NKG2A, and understanding the modulation of its targets upon treatment is key in overcoming immune-resistant scenarios, especially in prostate cancer.
Experiments were conducted with noncytotoxic doses of vorinostat (0.3 μM) and panobinostat (3 nM).
(§2) PCa cells were plated at a density of 3×10^5 cells per well of a 6-well plate and adhered overnight. […] After treatment, cells were trypsinized, stained, and incubated (Cell Staining Buffer SouthernBiotech #0225-01S) with the corresponding antibody for 45-60 min at 4° C. Viability dye was added with each run. NK-92 cells and patient-derived cells were stained similarly. Markers used for experiments included: Thermofisher HLA-E Monoclonal Antibody (3D12HLA-E), Alexa Fluor™ 488, eBioscience™, CD274 (PD-L1, B7-H1) Monoclonal Antibody (MIH1), eFluor™ 450, eBioscience™, Cell Signaling PD-1 (D4W2J) XPR Rabbit mAb, SYTOX™ Orange Dead Cell Stain, for flow cytometry, BioLegend APC anti-human CD159a (NKG2A) Antibody #375108, BioLegend APC anti-human CD69 Antibody #310909, BioLegend Alexa Fluor® 647 anti-human CD137 (4-1BB) [4B4-1] #309823. For staining of the patient-derived PBMCs and subsequent NK cell characterization, the following antibodies were used: BioLegend Anti-Perforin Mouse Monoclonal Antibody (PerCP Cy5.50, clone: dG9) #308113, BioLegend Anti-Granzyme B Mouse Monoclonal Antibody (FITC, clone: GB11) #515403, BioLegend Anti-CD56 Mouse Monoclonal Antibody (Alexa Fluor® 700, clone: 5.1H1) #362521, and BioLegend (PE anti-human CD45 Antibody) #304008.

LNCaP cells = test: Flow cytometry of HLA-E / PD-L1 surface expression on LNCaP; format: cell-based; conditions: LNCaP, DHT 30 nM, vorinostat 0.3 μM, panobinostat 3 nM, 48 h
Experimental: The effect of ARi on the NKG2A ligand, HLA-E, was investigated by flow cytometry on PCa cells treated with enza and daro.
as §2
The effect of androgen pathway inhibitors in the expression of HLA-E, a negative and key negative modulator of NK cell function, was also performed using Flow Cytometry. PD-L1 expression levels were also measured. In advance, The NK cell immune checkpoint inhibitor monalizumab (targeting NKG2A and its ligand, HLA-E) was also combined with ARi.

NK cells = test: Flow cytometry of NKG2A and PD-1 surface expression on NK cells; format: cell-based
Experimental: as §2
Methods: PCa cell lines (LNCaP, 22Rv1 [ARv7 mutation], DU145[AR-], PC3 [AR-]) were cocultured with NK-92 cells and treated with ARi (enzalutamide [enza] and darolutamide [daro]) or in combination with anti-NKG2A antibody monalizumab. Immune cell-mediated tumor cell killing assays and multiplexed cytokine profiling were performed. NKc expression of NKG2A and PCa cells expression of HLA-E were investigated by flow cytometry. The AR-negative cell lines (PC3 and DU145) were stably transduced with a functional AR pathway to evaluate the modulation of HLA-E by AR. The activation status of peripheral blood NKc isolated from patients with PCa before and post-initiation of androgen deprivation therapy (ADT) was investigated by flow cytometry.

DU145 = test: Flow cytometry of HLA-E surface expression on non-AR-transduced DU145; format: cell-based
From the text: as §1
PCa cells were plated at a density of 3×10^5 cells per well of a 6-well plate and adhered overnight. […] After treatment, cells were trypsinized, stained, and incubated (Cell Staining Buffer SouthernBiotech #0225-01S) with the corresponding antibody for 45-60 min at 4° C. Viability dye was added with each run. NK-92 cells and patient-derived cells were stained similarly. […]

LNCaP [1] = test: Co-culture of LNCaP with NK-92 cells, immune-mediated tumor cell killing; format: cell-based; conditions: LNCaP + NK-92 1:1, enzalutamide 10 μM, FIG. 15A
Experimental: (§3) They were co-treated with enzalutamide ([…]) or darolutamide (20 μM) for 48 h. Doses of AR inhibitors (ARi) used in the co-culture experiments were based on previous IC50 experiments. […] The immune-mediated effect of NK-92 on the PCa cell lines in the presence of enzalutamide (immune enhancement death) was normalized to baseline immune and tumor cell killing in each condition [(tumor cells+immune cells)-tumor baseline death=baseline immune death]. […] Cytokine analysis was performed to investigate the activation phenotype of NK cells when treated with ARi.
(§4) Prostate cancer cell lines were dyed with the blue CMAC live-cell dye (Thermo Fisher Scientific #C2110, per manufacturer protocol). Blue-fluorescent cancer cells were plated at a density of 10,000 cells per well of a 48-well plate. NK-92 cells were dyed with green CMFDA (Cayman Chemical Company #19583, per manufacturer protocol). Green-fluorescent NK-92 cells were added to the blue-fluorescent cancer cells at a 1:1 ratio. Enzalutamide (10 μM), darolutamide (20 μM), and 1 μM ethidium homodimer (EthD-1) were added at the same time as the NK cells. After 24 hours of co-culture, images of live cancer cells, live NK cells, and dead cells were taken using a fluorescent microscope. The co-culture experiments were run with internal control conditions and as a single treatment. Normalization was performed after analysis to take baseline death conditions into each experiment run. […] Cell adhered over 24 h, and when patient-derived NK cells were added, a control well was trypsinized, and cells resuspended and counted to adjust a 1:1 ratio before treatment addition. […]
(§5) Live cancer cells, NK cells, and dead cells were quantified using FIJI (Fiji Is Just ImageJ) software for images derived from fluorescent co-culture images. Images from the ImageXpress system were quantified using MetaXpress cytoplasmic/nuclear staining software. The percent of dead tumor cells in each well was quantified, and this percentage was normalized by subtracting baseline death from cancer cell-only wells, NK cell-only wells, or both.

22Rv1 = test: Co-culture of 22Rv1 with NK-92 cells, immune-mediated tumor cell killing; format: cell-based; conditions: 22Rv1 + NK-92 1:1, enzalutamide 10 μM, FIG. 15B
Experimental: as §3, §4, §5

PC3 = test: Co-culture of GFP-expressing PC3 with patient-derived NK cells; format: cell-based, human
From the text: (§6) To validate an additive effect of ARi and monalizumab enhancing NK cell cytotoxicity, we performed a co-culture assay with GFP-labeled PCa cell lines (including ARi-sensitive LNCaP and ARi-resistant PC3) and patient-derived NK cells. The NK cells were negatively selected from whole blood from patients with metastatic prostate cancer before initiation of androgen deprivation therapy. The addition of enzalutamide or darolutamide enhanced the cytotoxicity of NK cells, and the combination of ARi with monalizumab potentiated immune killing (FIG. 15C-D).
(§7) Prostate cancer cell lines were dyed with the blue CMAC live-cell dye (Thermo Fisher Scientific #C2110, per manufacturer protocol). Blue-fluorescent cancer cells were plated at a density of 10,000 cells per well of a 48-well plate. NK-92 cells were dyed with green CMFDA (Cayman Chemical Company #19583, per manufacturer protocol). Green-fluorescent NK-92 cells were added to the blue-fluorescent cancer cells at a 1:1 ratio. Enzalutamide (10 μM), darolutamide (20 μM), and 1 μM ethidium homodimer (EthD-1) were added at the same time as the NK cells. After 24 hours of co-culture, images of live cancer cells, live NK cells, and dead cells were taken using a fluorescent microscope. The co-culture experiments were run with internal control conditions and as a single treatment. Normalization was performed after analysis to take baseline death conditions into each experiment run. To optimize the high output of these experiments, a subset of co-cultures were performed using the ImageXpress® Micro Confocal High-Content Imaging. This analysis maintained the experiment conditions, drug concentrations, and the dyeing process. When GFP-labeled tumor cells were used for culture assays, they were added in a 1:1 ratio. Cell adhered over 24 h, and when patient-derived NK cells were added, a control well was trypsinized, and cells resuspended and counted to adjust a 1:1 ratio before treatment addition. The experiments with blocking antibodies were performed using the ImageXpress system. TRAIL blocking ab was purchased from Santa Cruz TRAIL Antibody (RIK-2): sc-56246, and IFN gamma blocking Monoclonal Antibody (NIB42, #6-7318-81) was purchased from Thermo Fisher. The blocking mAb was added when NK cells were combined with tumor cells.
(§8) NK cells were isolated from patients harboring metastatic castration-sensitive prostate cancer using the MojoSort™ Human NK Cell Isolation Kit (#480053). Patients signed informed consent for IRB-approved research protocol number 2055-13, allowing the collection of peripheral blood samples. […] The untouched NK cells (CD56+, CD3−) were collected, and the purity of isolation was determined by flow cytometry using anti-CD56 (BioLegend 362503). […]

LNCaP [2] = test: Co-culture of GFP-expressing LNCaP with patient-derived NK cells; format: cell-based, human
From the text: as §6, §7, §8

[3] = tested on: PC cell lines (LNCap, 22Rv1, DU145, PC3); test: Co-cultures of PC cell lines with NK cells (1:1), immune-mediated PC killing; format: cell-based
Experimental: as §7
as §5, with “both. A two-way ANOVA was used to calculate the interaction effect between drug treatment and NK cells.” for “both.”
In groups with a significant interaction effect, data was further normalized in the cancer cell+NK cells+drug treatment well by subtracting out death in the cancer cell+drug well. A one-way ANOVA and multiple comparison analysis with subsequent t-tests were used to calculate the statistical significance of the difference between this group and the cancer cell+NK cell well. GraphPad Prism Version 9.5.1 was used for statistical analysis.
We conducted cell viability assays to investigate the effect of Enza and Daro on PC cells (LNCap, 22Rv1 [ARv7 mutation], DU145, PC3 [AR-]) and NK-92 cells. We performed co-culture experiments with PC and NK cells in a 1:1 ratio and analyzed immune cell-mediated tumor cell killing (ImageXpress Confocal HT). Cytokine profiling (Luminex 200) of culture supernatants was performed following treatment with ARi−/+ and anti-IFN-γ antibodies. In vivo studies were performed in NCr Nude mice harboring subcutaneous PC tumors treated orally with Daro (50 mg/kg/bid) and Enza (30 mg/kg/bid) for 4 weeks.
We performed ATP-based (CellTiter-Glo) viability assays to investigate the effect of Enzalutamide and Darolutamide on PC cell lines (LNCap, 22Rv1 [ARv7 mutation], DU145, PC3 [AR-]) and NK-92 cells. We performed co-culture experiments with PC and NK cells at a 1:1 ratio throughout 4 h, 6 h, 12 h, 24 h, and 48 h periods. We analyzed immune cell-mediated tumor cell killing in the presence of Enza and Darolutamide (ImageXpress Confocal HT). Western Blotting was performed to evaluate different protein expression levels and their regulation related to sensitivity in mediating immune-mediated cell killing (apoptotic family). […]

Molecule	surface expression of HLA-E (PC3 cell line)	expression of HLA-E upon DHT treatment with HDACi (LNCaP cells)	HLA-E expression (PC3 cell line; non-AR-transduced PC3)	surface expression of NKG2A (NK cells)	surface expression of PD-1 (NK cells; MFI)	HLA-E expression (DU145)	NK cell killing of PCa cells (immune enhancement) (LNCaP [1])	NK cell killing of PCa cells (immune enhancement) (22Rv1)	killing of PCa cells by patient-derived NK cells (in words) (PC3; GFP PC3, 1:1, 24 h, monalizumab in combination with enza and daro)	median number of cells in co-culture (PC3; PC3 and NK cells, monalizumab added to darolutamide or enzalutamide, FIG. 3A)	killing of PCa cells by patient-derived NK cells (in words) (LNCaP [2]; GFP LNCaP, 1:1, 24 h, monalizumab in combination with enza and daro)	median number of cells in co-culture (LNCaP [2]; LNCaP and NK cells, monalizumab added to darolutamide or enzalutamide, FIG. 3B)	immune-mediated NK cell killing of PCa cells (in words) ([3]; co-culture PCa + NK-92 cells)	ARi immune enhancement effect ([3]; co-cultures of PC cell lines and NK cells with Enzalutamide (API), [T] plus monalizumab)
O=C(CCCCCCC(=O)Nc1ccccc1)NO [vorinostat]	did not change	did not change significantly	–	–	–	–	–	–	–	–	–	–	–	–
C[C@]12CCC(=O)C[C@@H]1CC[C@@H]1[C@@H]2CC[C@]2(C)[C@@H](O)CC[C@@H]12 [DHT, dihydrotestosterone]	did not alter	–	11.28%	reversed	reversed	1.84%	–	–	–	–	–	–	–	–
B1	–	–	–	–	–	–	19.89%	18.29%	potentiated	decreases	potentiated	decreases	did not enhance	43.92%
